Assay results published in US20040213780A1 (GENERAL HOSPITAL, published 2004).

Target: T1, mutant full-length huntingtin with 75 glutamines (HttQ75) (UniProt P42858 1-3142)
T1 construct: domain: full-length; In the yeast two-hybrid assay expressed as prey fusion from vector pJG4-5 (hemagglutinin tag); also called mutant huntingtin
Test: yeast two-hybrid, huntingtin prey against TAFII130 bait
Method: All the constructs were verified by DNA sequencing for correct reading frame and orientation. All assays were performed in triplicates and protein expression verified by Western blotting using standard procedures. The ability of the LexA fusion to bind operator was confirmed by a repression assay. The two-hybrid screen assays were performed as described (D. Krainc et al., J. Biol. Chem. 273:26218, 1998).
Because NH₂-terminal fragments of mutant huntingtin can effectively induce cell death in both in vivo and in vitro models (L. Mangiarini, et al., Cell 87:493, 1996; J. K. Copper, et al., Hum. Mol. Genet. 7:783, 1998; D. Martindale, et al., Nature Genet. 18:150, 1998; S. H. Li and X. Y. Li, Hum. Mol. Genet. 7:777, 1998), we examined the interactions of Sp1 and TAFII130 with the 480-amino acid NH₂-terminal fragment of huntingtin. […] FIG. 1 illustrates that Huntingtin interacted with Sp1 and TAFII130 in vitro and in human HD brain tissue. FIG. 1A illustrates results of yeast two-hybrid experiments, as described above herein, performed with full-length (HttQ17 and HttQ75) or truncated huntingtin constructs (Htt480Q17 and Htt480Q68) as prey against bait plasmids containing full-length Sp1 or Sp1 lacking the DNA binding domain (Sp1AB, amino acids 83 through 621).

T1 sequence (P42858 other isoform, or with tags, fused parts or gaps mutant limits assumed): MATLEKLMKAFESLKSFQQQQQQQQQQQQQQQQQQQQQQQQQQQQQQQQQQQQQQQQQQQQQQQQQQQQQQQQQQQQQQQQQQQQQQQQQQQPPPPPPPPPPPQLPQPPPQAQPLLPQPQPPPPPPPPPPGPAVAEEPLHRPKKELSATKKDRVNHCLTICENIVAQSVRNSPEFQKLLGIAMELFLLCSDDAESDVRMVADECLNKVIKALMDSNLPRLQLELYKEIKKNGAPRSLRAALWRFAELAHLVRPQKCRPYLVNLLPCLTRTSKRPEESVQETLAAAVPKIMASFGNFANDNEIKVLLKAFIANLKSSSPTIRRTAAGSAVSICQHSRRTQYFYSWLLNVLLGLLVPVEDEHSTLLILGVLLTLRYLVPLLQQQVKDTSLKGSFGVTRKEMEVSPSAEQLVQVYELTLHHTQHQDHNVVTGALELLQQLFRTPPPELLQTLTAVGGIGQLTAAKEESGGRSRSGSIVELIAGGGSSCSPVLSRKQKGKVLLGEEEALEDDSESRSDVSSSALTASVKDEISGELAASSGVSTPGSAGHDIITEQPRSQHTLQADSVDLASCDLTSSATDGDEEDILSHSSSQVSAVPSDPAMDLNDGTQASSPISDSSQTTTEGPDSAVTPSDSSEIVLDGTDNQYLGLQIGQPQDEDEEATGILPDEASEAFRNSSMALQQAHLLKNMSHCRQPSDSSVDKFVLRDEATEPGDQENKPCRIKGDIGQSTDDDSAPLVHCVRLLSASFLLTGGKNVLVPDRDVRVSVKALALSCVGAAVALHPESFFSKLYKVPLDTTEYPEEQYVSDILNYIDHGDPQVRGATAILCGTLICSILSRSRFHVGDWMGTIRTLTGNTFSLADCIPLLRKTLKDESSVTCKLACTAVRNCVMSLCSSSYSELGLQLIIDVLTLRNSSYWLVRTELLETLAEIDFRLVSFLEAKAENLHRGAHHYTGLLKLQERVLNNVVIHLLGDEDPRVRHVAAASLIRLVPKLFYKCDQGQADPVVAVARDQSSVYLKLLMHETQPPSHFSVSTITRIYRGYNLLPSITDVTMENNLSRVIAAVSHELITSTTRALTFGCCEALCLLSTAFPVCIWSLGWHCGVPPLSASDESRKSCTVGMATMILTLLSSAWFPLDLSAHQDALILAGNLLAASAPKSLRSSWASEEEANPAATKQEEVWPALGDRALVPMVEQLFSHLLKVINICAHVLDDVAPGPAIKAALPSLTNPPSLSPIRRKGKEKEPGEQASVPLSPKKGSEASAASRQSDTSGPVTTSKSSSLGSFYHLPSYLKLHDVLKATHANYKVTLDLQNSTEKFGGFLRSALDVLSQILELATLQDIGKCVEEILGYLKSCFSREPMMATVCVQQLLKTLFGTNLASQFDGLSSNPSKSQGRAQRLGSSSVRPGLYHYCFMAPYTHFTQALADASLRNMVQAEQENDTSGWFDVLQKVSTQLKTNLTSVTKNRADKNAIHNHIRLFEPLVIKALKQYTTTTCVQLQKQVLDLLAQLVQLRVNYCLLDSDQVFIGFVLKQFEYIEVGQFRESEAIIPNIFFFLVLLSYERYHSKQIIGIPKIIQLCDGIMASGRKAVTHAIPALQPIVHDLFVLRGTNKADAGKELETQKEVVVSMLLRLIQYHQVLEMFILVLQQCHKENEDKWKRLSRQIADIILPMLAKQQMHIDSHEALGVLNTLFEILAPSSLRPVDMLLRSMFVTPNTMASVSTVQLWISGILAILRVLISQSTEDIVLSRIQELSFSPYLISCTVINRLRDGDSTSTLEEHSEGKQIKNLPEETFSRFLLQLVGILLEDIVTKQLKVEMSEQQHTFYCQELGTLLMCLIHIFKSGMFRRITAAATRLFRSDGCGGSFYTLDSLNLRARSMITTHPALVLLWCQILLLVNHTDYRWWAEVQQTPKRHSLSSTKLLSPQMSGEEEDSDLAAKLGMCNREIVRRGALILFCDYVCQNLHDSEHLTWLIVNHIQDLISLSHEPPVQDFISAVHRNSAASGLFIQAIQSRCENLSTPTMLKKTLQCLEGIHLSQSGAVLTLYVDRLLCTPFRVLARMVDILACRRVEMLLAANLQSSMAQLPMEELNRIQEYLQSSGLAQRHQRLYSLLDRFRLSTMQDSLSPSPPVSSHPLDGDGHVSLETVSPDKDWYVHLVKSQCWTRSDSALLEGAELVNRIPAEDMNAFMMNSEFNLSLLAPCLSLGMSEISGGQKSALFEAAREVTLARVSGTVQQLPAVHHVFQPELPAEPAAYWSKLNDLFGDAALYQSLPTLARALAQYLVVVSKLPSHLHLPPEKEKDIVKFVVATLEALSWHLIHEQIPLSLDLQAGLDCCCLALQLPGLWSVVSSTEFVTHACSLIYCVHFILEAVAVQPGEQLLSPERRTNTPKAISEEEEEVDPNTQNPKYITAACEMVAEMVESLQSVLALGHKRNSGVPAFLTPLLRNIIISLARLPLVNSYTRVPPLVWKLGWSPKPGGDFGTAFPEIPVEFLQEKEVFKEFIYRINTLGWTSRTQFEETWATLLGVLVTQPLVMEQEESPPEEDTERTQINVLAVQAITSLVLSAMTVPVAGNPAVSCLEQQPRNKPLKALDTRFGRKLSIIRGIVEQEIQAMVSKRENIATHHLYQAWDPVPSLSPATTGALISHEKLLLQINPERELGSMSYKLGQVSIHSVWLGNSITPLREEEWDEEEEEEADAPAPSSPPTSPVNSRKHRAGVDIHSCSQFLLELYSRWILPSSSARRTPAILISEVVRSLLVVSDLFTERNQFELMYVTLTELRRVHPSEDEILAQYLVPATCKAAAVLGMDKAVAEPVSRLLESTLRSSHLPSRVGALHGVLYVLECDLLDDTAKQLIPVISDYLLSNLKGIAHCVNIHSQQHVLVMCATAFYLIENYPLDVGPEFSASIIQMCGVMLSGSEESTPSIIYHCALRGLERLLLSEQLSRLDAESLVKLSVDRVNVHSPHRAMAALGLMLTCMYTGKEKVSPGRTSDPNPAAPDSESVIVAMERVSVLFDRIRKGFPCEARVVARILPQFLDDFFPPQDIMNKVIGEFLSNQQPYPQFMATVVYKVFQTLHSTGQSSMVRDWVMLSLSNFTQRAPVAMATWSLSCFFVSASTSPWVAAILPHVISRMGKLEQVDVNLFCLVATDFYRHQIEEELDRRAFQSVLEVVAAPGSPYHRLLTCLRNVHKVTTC

binding result: binds
B1: TAFII130 (coactivator), full length (other, UniProt O00268 139-1085, looked up)
chain: PVPAAAAVAAGPEPAPAGPAKPAGPAALAARAGPGPGPGPGPGPGPGPGKPAGPGAAQTLNGSAALLNSHHAAAPAVSLVNNGPAALLPLPKPAAPGTVIQTPPFVGAAAPPAPAAPSPPAAPAPAAPAAAPPPPPPAPATLARPPGHPAGPPTAAPAVPPPAAAQNGGSAGAAPAPAPAAGGPAGVSGQPGPGAAAAAPAPGVKAESPKRVVQAAPPAAQTLAASGPASTAASMVIGPTMQGALPSPAAVPPPAPGTPTGLPKGAAGAVTQSLSRTPTATTSGIRATLTPTVLAPRLPQPPQNPTNIQNFQLPPGMVLVRSENGQLLMIPQQALAQMQAQAHAQPQTTMAPRPATPTSAPPVQISTVQAPGTPIIARQVTPTTIIKQVSQAQTTVQPSATLQRSPGVQPQLVLGGAAQTASLGTATAVQTGTPQRTVPGATTTSSAATETMENVKKCKNFLSTLIKLASSGKQSTETAANVKELVQNLLDGKIEAEDFTSRLYRELNSSPQPYLVPFLKRSLPALRQLTPDSAAFIQQSQQQPPPPTSQATTALTAVVLSSSVQRTAGKTAATVTSALQPPVLSLTQPTQVGVGKQGQPTPLVIQQPPKPGALIRPPQVTLTQTPMVALRQPHNRIMLTTPQQIQLNPLQPVPVVKPAVLPGTKALSAVSAQAAAAQKNKLKEPGGGSFRDDDDINDVASMAGVNLSEESARILATNSELVGTLTRSCKDETFLLQAPLQRRILEIGKKHGITELHPDVVSYVSHATQQRLQNLVEKISETAQQKNFSYKDDDRYEQASDVRAQLKFFEQLDQIEKQRKDEQEREILMRAAKSRSRQEDPEQLRLKQKAKEMQQQELAQMRQRDANLTALAAIGPRKKRKVDCPGPGSGAEGSGPGSVVPGSSGVGTPRQFTRQRITRVNLRDLIFCLENERETSHSLLLYKAFLK
notes: domain: full-length; in striatal neurons overexpressed
